Reference: article PMC3548793, “CK2 Phosphorylates Sec31 and Regulates ER-To-Golgi Trafficking” (PLoS ONE, 2013)
Positions count from the first letter of the chain named. In names and notes the source's numbering stands.

B1: FLAG-tagged wild type (WT) Sec31 (natural protein, human, UniProt O94979 1-1220, looked up)
chain: MKLKEVDRTAMQAWSPAQNHPIYLATGTSAQQLDATFSTNASLEIFELDLSDPSLDMKSCATFSSSHRYHKLIWGPYKMDSKGDVSGVLIAGGENGNIILYDPSKIIAGDKEVVIAQNDKHTGPVRALDVNIFQTNLVASGANESEIYIWDLNNFATPMTPGAKTQPPEDISCIAWNRQVQHILASASPSGRATVWDLRKNEPIIKVSDHSNRMHCSGLAWHPDVATQMVLASEDDRLPVIQMWDLRFASSPLRVLENHARGILAIAWSMADPELLLSCGKDAKILCSNPNTGEVLYELPTNTQWCFDIQWCPRNPAVLSAASFDGRISVYSIMGGSTDGLRQKQVDKLSSSFGNLDPFGTGQPLPPLQIPQQTAQHSIVLPLKKPPKWIRRPVGASFSFGGKLVTFENVRMPSHQGAEQQQQQHHVFISQVVTEKEFLSRSDQLQQAVQSQGFINYCQKKIDASQTEFEKNVWSFLKVNFEDDSRGKYLELLGYRKEDLGKKIALALNKVDGANVALKDSDQVAQSDGEESPAAEEQLLGEHIKEEKEESEFLPSSGGTFNISVSGDIDGLITQALLTGNFESAVDLCLHDNRMADAIILAIAGGQELLARTQKKYFAKSQSKITRLITAVVMKNWKEIVESCDLKNWREALAAVLTYAKPDEFSALCDLLGTRLENEGDSLLQTQACLCYICAGNVEKLVACWTKAQDGSHPLSLQDLIEKVVILRKAVQLTQAMDTSTVGVLLAAKMSQYANLLAAQGSIAAALAFLPDNTNQPNIMQLRDRLCRAQGEPVAGHESPKIPYEKQQLPKGRPGPVAGHHQMPRVQTQQYYPHGENPPPPGFIMHGNVNPNAAGQLPTSPGHMHTQVPPYPQPQPYQPAQPYPFGTGGSAMYRPQQPVAPPTSNAYPNTPYISSASSYTGQSQLYAAQHQASSPTSSPATSFPPPPSSGASFQHGGPGAPPSSSAYALPPGTTGTLPAASELPASQRTGPQNGWNDPPALNRVPKKKKMPENFMPPVPITSPIMNPLGDPQSQMLQQQPSAPVPLSSQSSFPQPHLPGGQPFHGVQQPLGQTGMPPSFSKPNIEGAPGAPIGNTFQHVQSLPTKKITKKPIPDEHLILKTTFEDLIQRCLSSATDPQTKRKLDDASKRLEFLYDKLREQTLSPTITSGLHNIARSIETRNYSEGLTMHTHIVSTSNFSETSAFMPVLKVVLTQANKLGV
notes: Sec31a, human, cDNA clone KIAA 0905 from Kazusa DNA Research Institute, subcloned into p3×FLAG-CMV; In the cells partly phosphorylated (S527, S799, S1163, T1165 found by mass spectrometry on endogenous Sec31); also called FLAG-Sec31; human Sec31a; source: HEK293, transfected, in lysate
B2: FLAG-tagged Sec31 S527A/S799A (natural protein, human, UniProt O94979 1-1220, looked up)
chain: B1 chain with S527A, S799A
notes: Sec31a, human, cDNA clone KIAA 0905, point mutations by QuikChange; also called S527/S799; source: HEK293, transfected, in lysate

Target: T1, GFP-tagged Sec23 (UniProt Q15436 1-765)
T1 construct: Sec23a; plasmid YFP-Sec23a was a gift; The results and legends call it GFP-tagged Sec23; the only Sec23 plasmid named in the methods is YFP-Sec23a; also called GFP-Sec23; YFP-Sec23a; source: HEK293, transfected, in lysate
T1 sequence (Q15436 whole entry): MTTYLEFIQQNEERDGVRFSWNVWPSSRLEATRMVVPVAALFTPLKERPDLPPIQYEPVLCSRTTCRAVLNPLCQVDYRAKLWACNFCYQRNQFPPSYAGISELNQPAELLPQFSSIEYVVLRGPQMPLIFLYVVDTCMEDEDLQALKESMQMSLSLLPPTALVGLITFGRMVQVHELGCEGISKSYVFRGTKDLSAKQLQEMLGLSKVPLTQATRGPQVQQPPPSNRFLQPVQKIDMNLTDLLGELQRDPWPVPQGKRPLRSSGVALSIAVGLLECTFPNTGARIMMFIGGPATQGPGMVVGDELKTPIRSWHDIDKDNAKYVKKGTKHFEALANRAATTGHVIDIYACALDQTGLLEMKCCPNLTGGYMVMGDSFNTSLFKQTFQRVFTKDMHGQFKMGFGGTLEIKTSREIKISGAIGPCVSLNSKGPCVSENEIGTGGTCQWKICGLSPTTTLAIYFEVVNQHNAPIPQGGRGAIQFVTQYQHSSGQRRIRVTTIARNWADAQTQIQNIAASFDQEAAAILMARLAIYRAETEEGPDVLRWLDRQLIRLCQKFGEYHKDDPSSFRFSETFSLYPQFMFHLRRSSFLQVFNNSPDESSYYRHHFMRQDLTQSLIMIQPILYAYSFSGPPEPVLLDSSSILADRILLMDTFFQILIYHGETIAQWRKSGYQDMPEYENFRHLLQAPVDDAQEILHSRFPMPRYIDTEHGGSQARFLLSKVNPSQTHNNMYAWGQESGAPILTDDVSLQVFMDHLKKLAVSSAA
Assay: co-IP; HEK293 cells co-transfected with FLAG-tagged Sec31 (WT or mutants) and GFP-tagged Sec23 or GFP-Sec13; GFP-tagged protein immunoprecipitated with anti-GFP beads, blot with anti-FLAG; 10 mM HEPES-KOH pH 7.4, 100 mM KCl, 0.1 mM DTT, 2.5 mM MgCl2, 1% Triton X-100, 30 min at 4°C; in Figure 6 cells transfected two days before with or without siRNA1 to CK2 alpha1
Conditions: partners not purified

Row | Binder | fold change of Sec31 co-precipitated with Sec23, CK2 depleted by siRNA1 against not depleted | fold change of Sec31 co-precipitated with Sec23 against wild type
1 | B1 | ~3 fold | 
2 | B2 |  | 3 fold
